Assay results from article PMC3463608.

Molecular target: His-tagged exomer complex (S. cerevisiae) (UniProt Q12114)
Experiment: pull-down; His-exomer complex immobilized on Ni-NTA beads, incubated with 150 ug/ml purified GST-Chs3 fragments at RT for 30 min; washes with B88G + 1% Tween 20 and B88G; SDS-PAGE and Coomassie staining; bound fragment quantified, normalized to Chs5p in the lane and to the wt pull-down; two independent experiments

level of binding, % of wt: 62 to 63 % of wt
B1: GST-Chs3 (1–170) D19AE21A (domain or fragment)
chain: MTGLNGDDPDDYYLNLNQAEASLLRSRHSVGSGAPHRQGSLVRPERSRLNNPDNPHFYYAQKTQEQMNHLDVLPSSTGVNPNATRRSGSLRSKGSVRSKFSGRETDSYLLQDMNTTDKKASVKISDEGVAEDEFDKDGDVDNFEESSTQPINKSIKPLRKETNDTLSFWQ
